Assay [1] has as its target Mouse FcγRIII, recombinantly expressed extracellular domain (mouse) (UniProt P08508). Briefly: BIAcore 3000, IgG immobilized, FcγR extracellular domain injected, equilibrium fit to a 1:1 binding isotherm. Background: Surface plasmon resonance follows binding to a sensor surface in real time, without labels.
Assay [2] addresses Mouse FcγRIV, recombinantly expressed extracellular domain (mouse). The description is as above.
Assay [3] concerns the target Human FcγRIIA, recombinantly expressed extracellular domain (human) (UniProt P12318). The assay is described as above.
The target in assay [4] is Human FcγRIIB, recombinantly expressed extracellular domain (human) (UniProt P31994). The description is as above.
Sequence of Human FcγRIIB, recombinantly expressed extracellular domain (human) (P31994 43-217): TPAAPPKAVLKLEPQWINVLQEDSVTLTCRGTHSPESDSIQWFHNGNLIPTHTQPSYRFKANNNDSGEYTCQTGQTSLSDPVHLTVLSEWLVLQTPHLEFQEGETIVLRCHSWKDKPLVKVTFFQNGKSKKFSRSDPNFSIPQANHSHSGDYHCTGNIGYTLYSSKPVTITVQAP
Assay [5] deals with Mouse FcγRIIB, recombinantly expressed extracellular domain (mouse) (UniProt P08101). The description is as above.
Sequence of Mouse FcγRIIB, recombinantly expressed extracellular domain (mouse) (P08101 30-210): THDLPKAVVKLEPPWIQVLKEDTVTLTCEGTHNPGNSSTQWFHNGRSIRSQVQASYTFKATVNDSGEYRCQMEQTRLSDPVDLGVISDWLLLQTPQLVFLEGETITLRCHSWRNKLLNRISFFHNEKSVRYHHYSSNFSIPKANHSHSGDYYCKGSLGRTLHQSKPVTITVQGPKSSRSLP
The target of assay [6] is Human FcγRIIIA (V158), recombinantly expressed extracellular domain (human) (UniProt P08637). The assay is described as above.
Sequence of Human FcγRIIIA (V158), recombinantly expressed extracellular domain (human) (P08637 17-208 F176V): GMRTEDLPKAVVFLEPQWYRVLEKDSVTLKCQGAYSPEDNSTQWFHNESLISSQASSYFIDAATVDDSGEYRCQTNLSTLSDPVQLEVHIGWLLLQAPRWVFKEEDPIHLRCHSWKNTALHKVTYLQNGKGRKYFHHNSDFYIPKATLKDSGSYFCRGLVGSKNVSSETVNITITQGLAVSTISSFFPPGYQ
For assay [7], the target named is Human FcγRI, recombinantly expressed extracellular domain (human) (UniProt P12314). Nature of the assay: BIAcore 3000, IgG immobilized, FcγR extracellular domain injected, equilibrium fit to a 1:1 binding isotherm; Fc variant 16C4-235F.
Sequence of Human FcγRI, recombinantly expressed extracellular domain (human) (P12314 16-292): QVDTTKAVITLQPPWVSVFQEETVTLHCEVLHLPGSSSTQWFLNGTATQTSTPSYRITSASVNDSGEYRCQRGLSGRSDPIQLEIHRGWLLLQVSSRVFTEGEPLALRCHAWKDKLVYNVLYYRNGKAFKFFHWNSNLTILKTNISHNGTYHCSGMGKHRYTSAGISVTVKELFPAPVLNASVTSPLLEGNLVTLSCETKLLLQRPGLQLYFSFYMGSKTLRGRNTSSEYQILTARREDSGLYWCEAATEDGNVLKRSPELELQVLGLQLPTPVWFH
For assay [8] the target is unchanged. Nature of the assay: BIAcore 3000, IgG immobilized, FcγR extracellular domain injected, equilibrium fit to a 1:1 binding isotherm; Fc variant 16C4-235Y.
For assay [9] the target is unchanged. Briefly: BIAcore 3000, IgG immobilized, FcγR extracellular domain injected, equilibrium fit to a 1:1 binding isotherm; 16C4, parent Fc (no Fc substitution).

Sequence of Mouse FcγRIII, recombinantly expressed extracellular domain (mouse) (P08508 31-215): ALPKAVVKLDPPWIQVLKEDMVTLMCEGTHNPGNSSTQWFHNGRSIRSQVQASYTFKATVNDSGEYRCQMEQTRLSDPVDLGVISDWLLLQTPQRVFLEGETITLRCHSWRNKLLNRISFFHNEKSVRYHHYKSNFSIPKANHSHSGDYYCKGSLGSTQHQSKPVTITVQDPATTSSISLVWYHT
Sequence of Human FcγRIIA, recombinantly expressed extracellular domain (human) (P12318 34-217): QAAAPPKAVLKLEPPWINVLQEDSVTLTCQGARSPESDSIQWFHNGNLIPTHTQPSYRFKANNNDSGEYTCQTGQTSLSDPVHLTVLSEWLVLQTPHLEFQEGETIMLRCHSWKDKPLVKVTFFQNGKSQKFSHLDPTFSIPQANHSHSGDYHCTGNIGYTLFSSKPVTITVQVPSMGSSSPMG
Sequence of Mouse FcγRIV, recombinantly expressed extracellular domain (mouse) (A0A0B4 entry or part of it limits assumed): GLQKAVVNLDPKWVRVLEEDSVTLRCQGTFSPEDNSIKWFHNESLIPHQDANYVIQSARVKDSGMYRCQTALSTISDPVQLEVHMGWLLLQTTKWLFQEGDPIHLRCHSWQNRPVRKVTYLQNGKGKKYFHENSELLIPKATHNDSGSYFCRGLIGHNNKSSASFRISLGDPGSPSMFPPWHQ

Take “16C4 Fc variant antibody comprising the L234F/L235F/P331S amino acid substitutions”: the Kd (in general, the equilibrium constant for the complex coming apart) in assay [1] was found to be 10.9 µM; in [2], 11.1 µM; in [3] it was 6.36 µM; in assay [4], 6.81 µM; in assay [5], 2.82 µM; in [6], 4.61 µM. Further, the Kd in [7] was 1.53 µM.

Take “16C4 Fc variant antibody comprising the L234F/L235Y/P331S amino acid substitutions”: the equilibrium dissociation constant (Kd) in assay [1] is 9.24 µM; in assay [3] it was 6.98 µM; in [4] it was 17.1 µM; in assay [5] it was 2.67 µM; in [6] it was 5.14 µM; in assay [8], 8.65 µM.

With “16C4 affinity matured anti-CD19 IgG antibody”, the Kd in assay [9] came out at 0.019 µM; in assay [1], 6.36 µM; in [2] it was 0.329 µM; in assay [4], 14.5 µM; in [5], 1.47 µM; in assay [6] it was 0.574 µM.

These data come from patent publication US20180273621A1.
